Drawing on the RNAGym collection of RNA variant scans (doi:10.7554/elife.80360), this text covers self-cleavage for 167 variants.

B1: CPEB3 Ribozyme (parent)
chain: GGGGGCCACAGCAGAAGCGUUCACGUCGCGGCCCCUGUCAGAUUCUGGUGAAUCUGCGAAUUCUGCUGU

The data set covers variants of B1. Kind of data set: self-cleavage, relative activity (ratio to wild type); higher = more cleavage; co-transcriptional.
In the case of U43A C54U, the self-cleavage was determined as 0.771.
In the case of C45U G47C, the self-cleavage is 0.998.
As to U44C G56A, the self-cleavage was 0.7.
The same measure for U43C C63U: 0.914.
Consider U43G G65A, for which the self-cleavage is 0.453.
The same measure for U43A A59G: 0.782; for U43A A59C: 0.573.
For the variant U43A A59U, the self-cleavage is 0.579.
The same measure for C45U U46C: 0.975; for C45U U46A: 0.999; for C45U U46G: 0.952.
For U43G U44G, the self-cleavage came to 0.83.
The same measure for U43G U69A: 0.954.
The same measure for U43G U69C: 1.03; for A42C G56A: 0.812; for C45U C66U: 0.984.
The same measure for U43C G47U: 0.98; for C45U G68A: 1.02; for A42G U46C: 0.965.
Regarding U43A A60C, the self-cleavage was 0.281.
The same measure for A42G U55G: 0.335; for A42G A51G: 0.894.
In the case of U43C G65U, the self-cleavage was found to be 0.568.
U43C G65A: the self-cleavage is 0.732.
The same measure for A42G G58U: 0.978; for U43C U44G: 0.904.
The same measure for U43A C66G: 0.572; for U44G A52C: 0.976.
With C45A G58U, the self-cleavage came out at 0.988.
The same measure for U43A C45G: 0.868.
For A42U G56C, the self-cleavage was 0.326.
The same measure for A42U G68U: 0.99; for A42U G68C: 0.964; for U44A G48C: 1.01.
The same measure for U44A G48U: 0.982; for U46A A60U: 0.556; for U46A A51G: 0.946.
The same measure for U43G U62A: 0.529; for U43G U62C: 0.437.
Take U44C G65A: the self-cleavage turned out to be 0.519.
As for U44C G65U, the self-cleavage was determined as 0.488.
Turning to C45A A52G, the self-cleavage is 0.97.
As to C45A A52C, the self-cleavage worked out at 0.908.
The same measure for A42U G50A: 0.949; for U44C U64C: 0.565.
For the variant U44C U67C, the self-cleavage turned out to be 0.937.
The same measure for U44A U62A: 0.838; for C45G C54A: 0.579.
The same measure for U44C C63A: 0.542; for U43A C57G: 0.357.
As for U44A G58A, the self-cleavage worked out at 0.963.
The same measure for U44A G58U: 0.951; for U46A G65C: 0.601.
Consider U46A G65A, for which the self-cleavage was determined as 0.954.
In the case of A42C U67G, the self-cleavage came out at 0.919.
For C45U U64A, the self-cleavage stood at 0.88.
The same measure for C45U U64C: 0.905; for U43A U69C: 1.04; for C45A U55C: 0.516.
The same measure for A42C G48A: 0.965; for A42C G48U: 0.988.
As for A42C G48C, the self-cleavage turned out to be 0.851.
The same measure for A42U A51G: 0.933; for C45G G65C: 0.62; for U43A U53A: 0.946.
Take U43A U53C: the self-cleavage turned out to be 0.795.
The same measure for A42C U46C: 0.895.
Consider A42C U46A, for which the self-cleavage worked out at 0.967.
The same measure for U43G G58A: 0.881.
Consider U43C U62G, for which the self-cleavage was determined as 0.783.
Consider U46A A59U, for which the self-cleavage was found to be 0.842.
The same measure for U44C C45G: 1.
The same measure for A42G G50C: 0.789.
The same measure for A42G G50A: 0.88; for A42U U44C: 0.913.
As to A42U U44G, the self-cleavage was 0.859.
The same measure for U44A U55G: 0.551; for U43C G56U: 0.638.
On to U43C C45A, for which the self-cleavage stood at 0.961.
With U43C C45G, the self-cleavage was found to be 0.964.
For the variant A42G U64C, the self-cleavage was 0.678.
On to A42G U64G, for which the self-cleavage was 0.693.
The same measure for A42G U64A: 0.602; for U43G U64G: 0.649.
With C45A A59G, the self-cleavage was 0.971.
The same measure for C45U G50U: 0.991.
Turning to A42G G68U, the self-cleavage came to 1.01.
The same measure for A42G G68A: 0.98; for A42G G68C: 0.963.
The same measure for U43C G50C: 0.915.
U43C G50U: the self-cleavage worked out at 0.99.
For the variant U43A U55G, the self-cleavage is 0.283.
Turning to U43A U55C, the self-cleavage is 0.289.
U46A U49C: the self-cleavage is 0.666.
The same measure for U46A U49G: 0.922.
The same measure for A42G C45G: 0.92.
A42U C63G: the self-cleavage was 0.533.
The same measure for A42U C63A: 0.608.
As to C45G G47U, the self-cleavage came out at 1.04.
The same measure for C45G G47C: 1; for C45U U53G: 0.9; for C45U U53A: 0.936.
For the variant C45G U53A, the self-cleavage amounted to 0.921.
The same measure for C45A C57U: 0.374.
Regarding C45A C57A, the self-cleavage stood at 0.359.
Turning to C45U A51G, the self-cleavage was 1.01.
The same measure for A42U C54U: 0.81; for C45G G50U: 0.961.
The same measure for A42U C66G: 0.682.
For U44A U64C, the self-cleavage amounted to 0.76.
On to C45G A52G, for which the self-cleavage stood at 0.989.
Consider C45G A52U, for which the self-cleavage was determined as 0.998.
Take U44A A52G: the self-cleavage was 0.988.
Turning to U44A A52C, the self-cleavage was 0.912.
As to A42C U43C, the self-cleavage came out at 0.777.
The same measure for U44A C63U: 0.985; for U44A C63G: 0.645.
The same measure for U43A G58C: 0.901.
Regarding A42U U43C, the self-cleavage is 0.77.
On to A42U U43G, for which the self-cleavage is 0.735.
The same measure for A42G U62A: 0.733; for A42G U62G: 0.709.
The same measure for U43C C66A: 0.614; for A42C U53G: 1.04.
As for A42C U53C, the self-cleavage stood at 0.939.
For the variant C45G U64A, the self-cleavage was found to be 0.908.
The same measure for U43G G48U: 1.01; for U43A A52C: 0.991; for U43A A52G: 1.
The same measure for A42U C57G: 0.298; for A42U C57A: 0.379; for U43G U55C: 0.312.
A42U U69G: the self-cleavage was 1.01.
Regarding U43G G50C, the self-cleavage is 0.864.
For the variant U43G C54U, the self-cleavage amounted to 0.662.
For A42G G48A, the self-cleavage was 0.979.
Regarding U44G U49C, the self-cleavage was 0.901.
On to U44G U49A, for which the self-cleavage was 0.935.
The same measure for U43C U55G: 0.388; for U46A G50U: 0.977; for U43A U64G: 0.578.
The same measure for U44A U46C: 0.993.
The same measure for U44A U46G: 0.981; for C45A U53C: 0.804.
As to C45A U53G, the self-cleavage turned out to be 0.863.
The same measure for U44G C45U: 0.945; for U44G C45G: 0.855; for A42C C54A: 0.707.
The same measure for A42C C54U: 0.822.
With A42U U61C, the self-cleavage is 0.435.
For the variant C45U U69G, the self-cleavage is 1.05.
In the case of U43A G68A, the self-cleavage came to 0.933.
The same measure for C45U A59C: 0.72; for A42U C45A: 0.889.
The same measure for A42U C45U: 0.997; for A42U C45G: 0.89; for C45A A51U: 0.931.
Turning to U44G U55A, the self-cleavage was 0.432.
As for U44G U55G, the self-cleavage amounted to 0.574.
Consider C45A C66U, for which the self-cleavage stood at 0.919.
As to C45A C66A, the self-cleavage came out at 0.744.
The same measure for U44A U61G: 0.645; for C45U G65A: 0.929; for A42G U53C: 0.891.
For the variant U44G U53G, the self-cleavage stood at 0.755.
Take U44C G47C: the self-cleavage was determined as 0.963.
Consider A42C G50U, for which the self-cleavage was found to be 0.932.
